# B1: ARHGEF2 (protein, UniProt Q92974 1-986, looked up)
# Rho guanine nucleotide …: MSRIESLTRARIDRSRELASKTREKEKMKEAKDARYTNGHLFTTISVSGMTMCYACNKSITAKEALICPTCNVTIHNRCKDTLANCTKVKQKQQKAALLKNNTALQSVSLRSKTTIRERPSSAIYPSDSFRQSLLGSRRGRSSLSLAKSVSTTNIAGHFNDESPLGLRRILSQSTDSLNMRNRTLSVESLIDEAEVIYSELMSDFEMDEKDFAADSWSLAVDSSFLQQHKKEVMKQQDVIYELIQTELHHVRTLKIMTRLFRTGMLEELHLEPGVVQGLFPCVDELSDIHTRFLSQLLERRRQALCPGSTRNFVIHRLGDLLISQFSGPSAEQMCKTYSEFCSRHSKALKLYKELYARDKRFQQFIRKVTRPAVLKRHGVQECILLVTQRITKYPLLISRILQHSHGIEEERQDLTTALGLVKELLSNVDEGIYQLEKGARLQEIYNRMDPRAQTPVPGKGPFGREELLRRKLIHDGCLLWKTATGRFKDVLVLLMTDVLVFLQEKDQKYIFPTLDKPSVVSLQNLIVRDIANQEKGMFLISAAPPEMYEVHTASRDDRSTWIRVIQQSVRTCPSREDFPLIETEDEAYLRRIKMELQQKDRALVELLREKVGLFAEMTHFQAEEDGGSGMALPTLPRGLFRSESLESPRGERLLQDAIREVEGLKDLLVGPGVELLLTPREPALPLEPDSGGNTSPGVTANGEARTFNGSIELCRADSDSSQRDRNGNQLRSPQEEALQRLVNLYGLLHGLQAAVAQQDTLMEARFPEGPERREKLCRANSRDGEAGRAGAAPVAPEKQATELALLQRQHALLQEELRRCRRLGEERATEAGSLEARLRESEQARALLEREAEEARRQLAALGQTEPLPAEAPWARRPVDPRRRSLPAGDALYLSFNPPQPSRGTDRLDLPVTTRSVHRNFEDRERQELGSPEERLQDSSDPDTGSEEEGSSRLSPPHSPRDFTRMQDIPEETESRDGEAVASES
# B2: NUFIP2 (protein, UniProt Q7Z417 1-695, looked up)
# FMR1-interacting protein …: MEEKPGQPQPQHHHSHHHPHHHPQQQQQQPHHHHHYYFYNHSHNHHHHHHHQQPHQYLQHGAEGSPKAQPKPLKHEQKHTLQQHQETPKKKTGYGELNGNAGEREISLKNLSSDEATNPISRVLNGNQQVVDTSLKQTVKANTFGKAGIKTKNFIQKNSMDKKNGKSYENKSGENQSVDKSDTIPIPNGVVTNNSGYITNGYMGKGADNDGSGSESGYTTPKKRKARRNSAKGCENLNIVQDKIMQQETSVPTLKQGLETFKPDYSEQKGNRVDGSKPIWKYETGPGGTSRGKPAVGDMLRKSSDSKPGVSSKKFDDRPKGKHASAVASKEDSWTLFKPPPVFPVDNSSAKIVPKISYASKVKENLNKTIQNSSVSPTSSSSSSSSTGETQTQSSSRLSQVPMSALKSVTSANFSNGPVLAGTDGNVYPPGGQPLLTTAANTLTPISSGTDSVLQDMSLTSAAVEQIKTSLFIYPSNMQTMLLSTAQVDLPSQTDQQNLGDIFQNQWGLSFINEPSAGPETVTGKSSEHKVMEVTFQGEYPATLVSQGAEIIPSGTEHPVFPKAYELEKRTSPQVLGSILKSGTTSESGALSLEPSHIGDLQKADTSSQGALVFLSKDYEIESQNPLASPTNTLLGSAKEQRYQRGLERNDSWGSFDLRAAIVYHTKEMESIWNLQKQDPKRIITYNEAMDSPDQ
# B3: FLOT2 (protein, UniProt Q14254 2-428, looked up)
# Flotillin-2: GNCHTVGPNEALVVSGGCCGSDYKQYVFGGWAWAWWCISDTQRISLEIMTLQPRCEDVETAEGVALTVTGVAQVKIMTEKELLAVACEQFLGKNVQDIKNVVLQTLEGHLRSILGTLTVEQIYQDRDQFAKLVREVAAPDVGRMGIEILSFTIKDVYDKVDYLSSLGKTQTAVVQRDADIGVAEAERDAGIREAECKKEMLDVKFMADTKIADSKRAFELQKSAFSEEVNIKTAEAQLAYELQGAREQQKIRQEEIEIEVVQRKKQIAVEAQEILRTDKELIATVRRPAEAEAHRIQQIAEGEKVKQVLLAQAEAEKIRKIGEAEAAVIEAMGKAEAERMKLKAEAYQKYGDAAKMALVLEALPQIAAKIAAPLTKVDEIVVLSGDNSKVTSEVNRLLAELPASVHALTGVDLSKIPLIKKATGVQV
# B4: HNRNPF (protein, UniProt P52597 1-415, looked up)
# Heterogeneous nuclear …: MMLGPEGGEGFVVKLRGLPWSCSVEDVQNFLSDCTIHDGAAGVHFIYTREGRQSGEAFVELGSEDDVKMALKKDRESMGHRYIEVFKSHRTEMDWVLKHSGPNSADSANDGFVRLRGLPFGCTKEEIVQFFSGLEIVPNGITLPVDPEGKITGEAFVQFASQELAEKALGKHKERIGHRYIEVFKSSQEEVRSYSDPPLKFMSVQRPGPYDRPGTARRYIGIVKQAGLERMRPGAYSTGYGGYEEYSGLSDGYGFTTDLFGRDLSYCLSGMYDHRYGDSEFTVQSTTGHCVHMRGLPYKATENDIYNFFSPLNPVRVHIEIGPDGRVTGEADVEFATHEEAVAAMSKDRANMQHRYIELFLNSTTGASNGAYSSQVMQGMGVSAAQATYSGLESQSVSGCYGAGYSGQNSMGGYD
# B5: ATXN2L (protein, UniProt Q8WWM7 1-1075, looked up)
# Ataxin-2-like protein: MLKPQPLQQPSQPQQPPPTQQAVARRPPGGTSPPNGGLPGPLATSAAPPGPPAAASPCLGPVAAAGSGLRRGAEGILAPQPPPPQQHQERPGAAAIGSARGQSTGKGPPQSPVFEGVYNNSRMLHFLTAVVGSTCDVKVKNGTTYEGIFKTLSSKFELAVDAVHRKASEPAGGPRREDIVDTMVFKPSDVMLVHFRNVDFNYATKDKFTDSAIAMNSKVNGEHKEKVLQRWEGGDSNSDDYDLESDMSNGWDPNEMFKFNEENYGVKTTYDSSLSSYTVPLEKDNSEEFRQRELRAAQLAREIESSPQYRLRIAMENDDGRTEEEKHSAVQRQGSGRESPSLASREGKYIPLPQRVREGPRGGVRCSSSRGGRPGLSSLPPRGPHHLDNSSPGPGSEARGINGGPSRMSPKAQRPLRGAKTLSSPSNRPSGETSVPPPPAVGRMYPPRSPKSAAPAPISASCPEPPIGSAVPTSSASIPVTSSVSDPGVGSISPASPKISLAPTDVKELSTKEPGRTLEPQELARIAGKVPGLQNEQKRFQLEELRKFGAQFKLQPSSSPENSLDPFPPRILKEEPKGKEKEVDGLLTSEPMGSPVSSKTESVSDKEDKPPLAPSGGTEGPEQPPPPCPSQTGSPPVGLIKGEDKDEGPVAEQVKKSTLNPNAKEFNPTKPLLSVNKSTSTPTSPGPRTHSTPSIPVLTAGQSGLYSPQYISYIPQIHMGPAVQAPQMYPYPVSNSVPGQQGKYRGAKGSLPPQRSDQHQPASAPPMMQAAAAAGPPLVAATPYSSYIPYNPQQFPGQPAMMQPMAHYPSQPVFAPMLQSNPRMLTSGSHPQAIVSSSTPQYPSAEQPTPQALYATVHQSYPHHATQLHAHQPQPATTPTGSQPQSQHAAPSPVQHQAGQAPHLGSGQPQQNLYHPGALTGTPPSLPPGPSAQSPQSSFPQPAAVYAIHHQQLPHGFTNMAHVTQAHVQTGITAAPPPHPGAPHPPQVMLLHPPQSHGGPPQGAVPQSGVPALSASTPSPYPYIGHPQGEQPGQAPGFPGGADDRIREFSLAGGIWHGRAEGLQVGQDARVLGGE
# B6: C4BPA (protein, UniProt P04003 49-597, looked up)
# C4b-binding protein alpha …: NCGPPPTLSFAAPMDITLTETRFKTGTTLKYTCLPGYVRSHSTQTLTCNSDGEWVYNTFCIYKRCRHPGELRNGQVEIKTDLSFGSQIEFSCSEGFFLIGSTTSRCEVQDRGVGWSHPLPQCEIVKCKPPPDIRNGRHSGEENFYAYGFSVTYSCDPRFSLLGHASISCTVENETIGVWRPSPPTCEKITCRKPDVSHGEMVSGFGPIYNYKDTIVFKCQKGFVLRGSSVIHCDADSKWNPSPPACEPNSCINLPDIPHASWETYPRPTKEDVYVVGTVLRYRCHPGYKPTTDEPTTVICQKNLRWTPYQGCEALCCPEPKLNNGEITQHRKSRPANHCVYFYGDEISFSCHETSRFSAICQGDGTWSPRTPSCGDICNFPPKIAHGHYKQSSSYSFFKEEIIYECDKGYILVGQAKLSCSYSHWSAPAPQCKALCRKPELVNGRLSVDKDQYVEPENVTIQCDSGYGVVGPQSITCSGNRTWYPEVPKCEWETPEGCEQVLTGKRLMQCLPNPEDVKMALEVYKLSLEIEQLELQRDSARQSTLDKEL
# B7: ASPH (protein, UniProt Q12797 1-758, looked up)
# Aspartyl/asparaginyl …: MAQRKNAKSSGNSSSSGSGSGSTSAGSSSPGARRETKHGGHKNGRKGGLSGTSFFTWFMVIALLGVWTSVAVVWFDLVDYEEVLGKLGIYDADGDGDFDVDDAKVLLGLKERSTSEPAVPPEEAEPHTEPEEQVPVEAEPQNIEDEAKEQIQSLLHEMVHAEHVEGEDLQQEDGPTGEPQQEDDEFLMATDVDDRFETLEPEVSHEETEHSYHVEETVSQDCNQDMEEMMSEQENPDSSEPVVEDERLHHDTDDVTYQVYEEQAVYEPLENEGIEITEVTAPPEDNPVEDSQVIVEEVSIFPVEEQQEVPPETNRKTDDPEQKAKVKKKKPKLLNKFDKTIKAELDAAEKLRKRGKIEEAVNAFKELVRKYPQSPRARYGKAQCEDDLAEKRRSNEVLRGAIETYQEVASLPDVPADLLKLSLKRRSDRQQFLGHMRGSLLTLQRLVQLFPNDTSLKNDLGVGYLLIGDNDNAKKVYEEVLSVTPNDGFAKVHYGFILKAQNKIAESIPYLKEGIESGDPGTDDGRFYFHLGDAMQRVGNKEAYKWYELGHKRGHFASVWQRSLYNVNGLKAQPWWTPKETGYTELVKSLERNWKLIRDEGLAVMDKAKGLFLPEDENLREKGDWSQFTLWQQGRRNENACKGAPKTCTLLEKFPETTGCRRGQIKYSIMHPGTHVWPHTGPTNCRLRMHLGLVIPKEGCKIRCANETKTWEEGKVLIFDDSFEHEVWQDASSFRLIFIVDVWHPELTPQQRRSLPAI
# B8: MISP (protein, UniProt Q8IVT2 1-679, looked up)
# Mitotic interactor and …: MDRVTRYPILGIPQAHRGTGLVLDGDTSYTYHLVCMGPEASGWGQDEPQTWPTDHRAQQGVQRQGVSYSVHAYTGQPSPRGLHSENREDEGWQVYRLGARDAHQGRPTWALRPEDGEDKEMKTYRLDAGDADPRRLCDLERERWAVIQGQAVRKSSTVATLQGTPDHGDPRTPGPPRSTPLEENVVDREQIDFLAARQQFLSLEQANKGAPHSSPARGTPAGTTPGASQAPKAFNKPHLANGHVVPIKPQVKGVVREENKVRAVPTWASVQVVDDPGSLASVESPGTPKETPIEREIRLAQEREADLREQRGLRQATDHQELVEIPTRPLLTKLSLITAPRRERGRPSLYVQRDIVQETQREEDHRREGLHVGRASTPDWVSEGPQPGLRRALSSDSILSPAPDARAADPAPEVRKVNRIPPDAYQPYLSPGTPQLEFSAFGAFGKPSSLSTAEAKAATSPKATMSPRHLSESSGKPLSTKQEASKPPRGCPQANRGVVRWEYFRLRPLRFRAPDEPQQAQVPHVWGWEVAGAPALRLQKSQSSDLLERERESVLRREQEVAEERRNALFPEVFSPTPDENSDQNSRSSSQASGITGSYSVSESPFFSPIHLHSNVAWTVEDPVDSAPPGQRKKEQWYAGINPSDGINSEVLEAIRVTRHKNAMAERWESRIYASEEDD
# Tested on: GFP-14-3-3β and its binding proteins
# Assay: GFP-14-3-3β co-IP with LC-MS/MS label-free quantification, untreated versus PP1c-treated
# Set-up: species or system human
# Conditions: PP1 vs untreated; label-free quantification
row,Molecule,"Difference (log2), PP1 vs untreated [log2]"
1,B1,0.772
2,B2,0.7682
3,B3,0.7666
4,B4,0.766
5,B5,0.7492
6,B6,0.7487
7,B7,0.7413
8,B8,0.7397

# Tested on: GFP-14-3-3β
# Assay: GFP-14-3-3β co-IP with LC-MS/MS, untreated GFP-14-3-3β versus GFP control (14-3-3 interactome)
# Assay type: binding, human
# Conditions: untreated vs GFP; label-free quantification
row,Molecule,"Difference (log2), untreated vs GFP [log2]"
1,B1,1.2
2,B2,0.8112
3,B3,-0.7491
4,B4,-0.6522
5,B5,0.1548
6,B6,-1.682
7,B7,0.9544
8,B8,-0.2245

# Reference: paper PMC7367873, “Dissecting the sequence determinants for dephosphorylation by the catalytic subunits of phosphatases PP1 and PP2A” (Nature Communications, 2020)
